The values below come from US20110076298A1, “Soluble stabilized trimeric hiv env proteins and uses thereof” (priority 2006, published 2011).

As a reminder, the EC50 is the concentration needed to bring the measured effect to its halfway point. A lower EC50 goes with an effect from little substance.

In data set [1] the test system is HIV-1KNH1144 Env-pseudotyped virus. Kind of data set: Env-pseudotyped HIV-1 neutralization assay, KNH1144 Env. Format: cell-based. Conditions: CCR5 inhibitors and RT inhibitor, read-out: Env-pseudotyped neutralization (50% endpoint) KNH1144. How it is done: (§1) FIGS. 4A-AF: Inhibition of infection by HIV-1JR-FL (filled circles) or HIV-1KNH1144 (open circles) Env-pseudotyped viruses by MAbs and fusion inhibitors. The viruses were incubated with the indicated concentrations of the inhibitors for 1 h prior to addition to U87.CD4.CCR5 cells. The luciferase content of cell lysates was determined after 3-4 days.
(§2) The generation and quantification of Env-pseudotyped HIV-1 viruses and their subsequent use in neutralization assays have been described previously.^45,65. U87.CD4.CCR5 target cells were used because the input pseudoviruses had the R5 phenotype. The amount of input pseudovirus was normalized by infectivity (virus titer). Virus infection was measured by determining luciferase expression in relative light units (RLU) in target cell lysates, according to the manufacturer's instructions (Promega, Madison, Wis.).
(§3) To assess the neutralization sensitivity of viruses bearing subtype A Env proteins, cytoplasmic tail-truncated gp140s from KER2008, KNH1144, KNH1207 and KNH1211 were co-expressed in trans with the pNL4/3.Luc plasmid to form single cycle, replication-incompetent pseudoviruses^72. Pseudovirions bearing the full-length Env protein from HIV-1JR-FL were also studied, for comparison.

The subject of data set [2] is HIV-1JR-FL Env-pseudotyped virus. Put plainly: Env-pseudotyped HIV-1 neutralization assay, JR-FL Env. The class given is cell-based. Conditions: CCR5 inhibitors and RT inhibitor, read-out: Env-pseudotyped neutralization (50% endpoint) JR-FL. How it is done: as §1, §2, §3
For data set [3], the target named is HIV-1KNH1207 Env on Env-pseudotyped virus (HIV-1 KNH1207, subtype A). Kind of data set: cell-based or functional assay.
Data set [4] has as its target HIV-1KER2008 Env on Env-pseudotyped virus (HIV-1 KER2008, subtype A). Put plainly: cell-based or functional assay.
Data set [5] has as its target HIV-1KNH1211 Env on Env-pseudotyped virus (HIV-1 KNH1211, subtype A). Put plainly: cell-based or functional assay.
In data set [6] the target is HIV-1KNH1144 Env on Env-pseudotyped virus (HIV-1 KNH1144, subtype A). Put plainly: cell-based or functional assay.
In data set [7] the target is gp120BaL (subtype B) (HIV-1 BaL, subtype B). Kind of data set: ELISA on D7324-captured gp120, half-maximal binding. On the technique in general: In an ELISA, binding on a coated surface is turned into a signal by an enzyme label.
The target in data set [8] is Q23-17 gp120 (monomeric, subtype A) (HIV-1 Q23-17, subtype A). The description is as above.
The target in data set [9] is KNH1207 gp120 (monomeric, subtype A) (HIV-1 KNH1207, subtype A). The data set is described as above.
Data set [10] deals with KNH1211 gp120 (monomeric, subtype A) (HIV-1 KNH1211, subtype A). The description is as above.
Data set [11] has as its target KNH1144 gp120 (monomeric, subtype A) (HIV-1 KNH1144, subtype A). The data set is described as above.
The target in data set [12] is KER2008 gp120 (monomeric, subtype A) (HIV-1 KER2008, subtype A). The data set is described as above.
In data set [13] the target is gp120JR-FL (monomeric, subtype B) (HIV-1 JR-FL, subtype B). The data set is described as above.
Data set [14] deals with BB359 gp120 (monomeric, subtype A) (HIV-1 BB359, subtype A). Described as above.
Data set [15] has as its target gp120DU151 (subtype C) (HIV-1 DU151, subtype C). The description is as above.
Data set [16] is described as follows: Oligomeric stability of purified SOSIP gp140 trimers to detergents, BN-PAGE. The class given is physicochemical. Conditions: 0.1% (v/v), 1 h, 25° C. On the procedure:
Biophysical and antigenic characterization of purified trimers derived from KNH1144 SOSIP gp140. (A) Trimeric KNH1144 SOSIP gp140 was treated with 0.1% (v/v) ionic (SDS) and non-ionic (NP40, Nonidet-P40; Tw20 (Tween®-20); TX100 (Triton X-100) detergents for 1 h at 25° C. before BN-PAGE analysis. (B) Trimeric KNH1144 SOSIP gp140 was incubated with 0.5 μg/ml of the indicated MAbs or proteins, and then immunoprecipitated with protein G sepharose prior to analysis by SDS-PAGE.
The oligomeric stability of purified SOSIP gp140 trimers was determined essentially as previously described.^44 Briefly, 50 ng of protein was treated with 0.1% (v/v) SDS, Nonidet P-40, Tween®-20 or Triton X-100 for 1 h at room temperature, followed by analysis on BN-PAGE. The various oligomeric forms of Env resolved on the gel were detected by CA13 immunoblotting.
A purified Env trimer should meet several criteria to establish that it has been synthesized, folded, cleaved and otherwise post-translationally modified correctly. For example, it is important to establish that SOSIP gp140 trimers are oligomerized via non-covalent interactions between the gp41ECTO subunits, and not via aberrant inter-subunit disulfide bonds^40,66,67. For these assessments, purified KNH1144 SOSIP gp140 trimers were treated for 1 h at 25° C. with 0.1% (v/v) ionic (SDS) and non-ionic (NP-40, Tween®-20, Triton X-100) detergents and then analyzed by BN-PAGE. […] This is consistent with studies of JR-FL SOSIP gp140 trimers^44.

A short description of data set [17]: Detergent collapse effect on 5768.4 SOSIP R6 gp140 preparation, BN-PAGE. Format: physicochemical. The conditions noted are these: 1 hour, room temperature. On the procedure: FIG. 15: Detergent “collapse” effect on subtype B 5768.4 HMW aggregate. 0.24 ug of purified subtype B 5768.4 SOSIP R6 gp140 trimer was incubated with 0.05 or 0.1% Tween 20. In addition, similar incubations were performed with NP40, Triton X-100, and SDS (at a final concentration of 0.1%) or the trimer preparation was untreated. Reactions were separated on BN-PAGE and visualized by coomassie G-250 stain. Arrows indicate HMW aggregate, a2M contaminant, trimer and monomer proteins. M stands for the 669 k thyroglobulin and 440 k ferritin molecular weight protein standards.
Tween® 20 Dose effect: 1 ug of purified 5768.4 SOSIP R6 trimer was incubated with varying concentrations of Tween® 20 ranging from 0.1 to 0.0001% (v/v) and incubated for 1 hour at room temperature. Following incubation, samples were analyzed by BN-PAGE as described above. Detergent effect on 5768.4 SOSIP R6 gp140 trimer preparations: 0.24 ug of purified 5768.4 SOSIP R6 trimer was incubated with Triton X-100, NP-40, or SDS to a final detergent concentration of 0.1% (v/v) or with Tween® 20 at concentrations of 0.05 and 0.1% for 1 hour at room temperature. Following incubation, 4× BN-PAGE MOPS sample buffer was added and the samples were immediately analyzed on BN-PAGE at 150 V for 2 hours at room temperature, followed by Coomassie G-250 staining.

Where two headings read alike, the source gives them in different places. Where only a bound is given, the exact number is not on record here.

`COC[C@@H](c1ccc(C(F)(F)F)cc1)N1CCN(C2(C)CCN(C(=O)c3c(C)ncnc3C)CC2)C[C@@H]1C` [SCH-D]: the IC50 in [1] (Human immunodeficiency virus 1) was found to be 10 pM; in data set [2] (Human immunodeficiency virus 1), 100 pM.
In the case of human monoclonal IgG 2F5 (antibody), the IC50, neutralization of Env-pseudotyped virus in data set [3] is 0.01 µg/mL; in [4], above 3 µg/mL; in [5], 0.03 µg/mL; in data set [6], above 3 µg/mL. In addition, the IC90, neutralization of Env-pseudotyped virus in data set [3] is 0.21 µg/mL; in data set [5], 0.99 µg/mL.
Turning to human monoclonal IgG 2G12 (antibody), the EC50 was 0.012 µg/mL in [7]; 0.54 µg/mL in data set [8]; 0.478 µg/mL in data set [9]; above 1 µg/mL in [10]; above 1 µg/mL in data set [11]; 0.064 µg/mL in [12]. For the same molecule, the values for the EC50 in [13], in data set [14] and in data set [15] were 0.061 µg/mL, above 1 µg/mL and above 1 µg/mL, respectively.
Turning to human monoclonal IgG b12 (antibody), the EC50 in data set [7] was 0.015 µg/mL; in [8] it was above 1 µg/mL; in data set [9], 0.092 µg/mL; in [10], 0.033 µg/mL; in [11], 0.642 µg/mL; in data set [12], above 1 µg/mL. Besides, the EC50 in data set [13] was 0.027 µg/mL; in data set [14], above 1 µg/mL; in data set [15], 0.018 µg/mL. Besides, the IC50, neutralization of Env-pseudotyped virus is 0.21 µg/mL in data set [3] and 1.14 µg/mL in data set [5]. The IC90, neutralization of Env-pseudotyped virus was 0.9 µg/mL in [3], above 3 µg/mL in data set [4], 1.9 µg/mL in data set [5] and above 3 µg/mL in data set [6].
Regarding MAb CA13 (ARP 3119) (antibody), the EC50 in [7] is 0.059 µg/mL; in data set [8] it was 0.094 µg/mL; in data set [9] it was 0.337 µg/mL; in [10], 0.176 µg/mL; in data set [11], 0.636 µg/mL; in [12], 1.57 µg/mL. Further, the EC50 is above 9 µg/mL in data set [13], 0.406 µg/mL in data set [14] and 0.043 µg/mL in [15].
For “CD4-immunoglobulin G2 (CD4-IgG2) protein (from UniProt P01730 26-204) (Fc fusion)”, the half-maximal effective concentration (EC50) in data set [7] came to 0.057 µg/mL; in [8], 0.083 µg/mL; in [9], 0.068 µg/mL; in data set [10], 0.063 µg/mL; in [11], 0.103 µg/mL; in data set [12], 0.236 µg/mL. Besides, the values for the EC50 in data set [13] and in [15] were 0.046 µg/mL and 0.09 µg/mL, respectively.
Regarding `Cc1cn([C@H]2C[C@H](N=[N+]=[N-])[C@@H](CO)O2)c(=O)[nH]c1=O` [AZT], the IC50 was 240000 pM in data set [1] and 220000 pM in [2].
Consider `CCO/N=C(\c1ccc(Br)cc1)C1CCN(C2(C)CCN(C(=O)c3c(C)cc[n+]([O-])c3C)CC2)CC1` [SCH-C], for which the IC50 in data set [1] (Human immunodeficiency virus 1) came out at 40 pM; in data set [2] (Human immunodeficiency virus 1) it was 200 pM.
As for “KNH1144 SOSIP gp140: soluble, disulfide-stabilized, I571P-modified cleaved trimeric gp140 of HIV-1 subtype A KNH1144”, in data set [16], the “adverse effects of NP-40 on trimers” value is reported as “little”; the “adverse effects of Triton X-100 on trimers” value was “little”; the “adverse effects of Tween-20 on trimers” value is “no”; the “effect of SDS on trimers” value was “completely dissociate into dimers and monomers”.
Consider “5768.4 SOSIP R6 gp140: subtype B 5768.4 envelope modified to the soluble SOSIP R6 gp140 trimer; SEQ ID NO:10”, for which, in data set [17] (0.1%), the “effect of NP40 on HMW aggregate” value is on record as “collapse of HMW aggregate to trimer”; the “effect of SDS” value was “breaking down the entire 5768.4 gp140 protein to resulting monomers”; the “effect of Triton X-100 on HMW aggregate” value is reported as “capable of collapsing HMW aggregate to trimer, however, some breakdown to monomeric 5768.4 was observed”. For the same molecule, the “effect of Tween (Tween 20 and Tween 80) on HMW aggregate” value in data set [17] (0.1 and 0.05%) is recorded as “effectively collapsed HMW aggregate to trimers”.
